Measured values: patent publication US10705076

Tests used:
[1] = target: HLA class II antigens (HLA-DR, HLA-DQ and HLA-DP); assay: Boltzmann sigmoid fit of the Luminex titration curve, upper asymptote
[2] = target: HLA class II antigens (HLA-DR, HLA-DQ and HLA-DP); assay: Luminex dose/response, mean over 5 class II bead types, antibody 5 × 10^-1 µg/ml; SD 160.45
[3] = target: HLA class II antigens (HLA-DR, HLA-DQ and HLA-DP); assay: Luminex dose/response, mean over 5 class II bead types, antibody 5 × 10^-4 µg/ml; SD 29.6
[4] = target: HLA class II antigens (HLA-DR, HLA-DQ and HLA-DP); assay: Luminex dose/response, mean over 5 class II bead types; SD 298.79
[5] = target: HLA class II antigens (HLA-DR, HLA-DQ and HLA-DP); assay: Luminex, each Labscreen Mixed class II bead type, antibody at 2 µg/ml; SD approximately 700
[6] = target: HLA class II antigens (HLA-DR, HLA-DQ and HLA-DP); assay: Luminex dose/response, mean over 5 class II bead types, antibody 2 × 10^-3 µg/ml; SD 72.15
[7] = target: HLA class II antigens (HLA-DR, HLA-DQ and HLA-DP); assay: Boltzmann sigmoid fit of the Luminex titration curve, lower asymptote
[8] = target: HLA class II antigens (HLA-DR, HLA-DQ and HLA-DP); assay: Luminex titration on Labscreen Mixed class II beads; concentration at 50% of (MAX - MIN)
[9] = target: HLA class II antigens (HLA-DR, HLA-DQ and HLA-DP); assay: Luminex dose/response, mean over 5 class II bead types, antibody 2 × 10^0 µg/ml; SD 167
[10] = target: HLA class II antigens (HLA-DR, HLA-DQ and HLA-DP); assay: Luminex dose/response, mean over 5 class II bead types, antibody 7.8 × 10^-3 µg/ml; SD 145.09
[11] = target: HLA class II antigens (HLA-DR, HLA-DQ and HLA-DP); assay: Luminex dose/response, mean over 5 class II bead types, antibody 3.13 × 10^-2 µg/ml; SD 273.56

MAX (fluorescence units) [1]: 24600
Average (fluorescence intensity) (fluorescence units) [2]: 22800
Average (fluorescence intensity) (fluorescence units) [3]: 316
Average (fluorescence intensity) (fluorescence units) [4]: 18000
fluorescence (average fluorescence units) [5]: 22000
Average (fluorescence intensity) (fluorescence units) [6]: 1090
MIN (fluorescence units) [7]: 88
EC50 [8]: 0.05 µg/mL
Average (fluorescence intensity) (fluorescence units) [9]: 23600
Average (fluorescence intensity) (fluorescence units) [10]: 3520
Average (fluorescence intensity) (fluorescence units) [11]: 9130
B1: monoclonal chimeric immunoglobulin Hu-IgG1 K [F3.3] (antibody, V domains shown)
VH: EVKLEESGGGLVQPGGSMKLSCVASGFTFSNSWMNWVRQSPEKGLEWVAEIRLKSNNYATRYAESVKGRFTISRDDSKSSVYLQMNNLRSEDTAIYYCTPLSYSFDYWGQGTTVTVST
VL: QIVLTQSPAIMSASPGEKVTMTCSASSIVRYMYWFQQKPGSSPRLLIYDTSSLSSGVPVRFSGSGSGTSYSLTISRMEAEDAATYFCQQWSSYPLTFGGGTKLEIKR
